Legend:
Settings in all cases: both partners purified
[1] = target: T1, Recombinant HBsAg protein (hepatitis B surface antigen) (Hepatitis B virus, strain ; …, UniProt P03141); experiment: ELISA; indirect ELISA kits (Beijing Wantai) on HBsAg, CR-T3-SEQ13 or SEQ13 peptides; purified antibodies titrated, EC50s
T1 construct: source: bought: Beijing Wantai Biological Pharmacy Enterprise

[2] = target: T2, SEQ13 peptide (HBsAg aa 113-135) (Hepatitis B virus, strain  …, UniProt P03141); experiment: as above
T2 construct: source: synthetic peptide, bought: Sangon Biotech
T2 chain: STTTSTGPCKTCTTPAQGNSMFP

[3] = target: T1, Recombinant HBsAg protein (hepatitis B …); experiment: SPR; Biacore 3000, 10°C; HBsAg immobilised (2 400 RU, sodium acetate pH 4.5); antibody 1.56-100 nM, 50 μL/min, 90 sec association, 600 sec dissociation

| Binder | binding result [1] | binding result [2] | Kd [3] |
| --- | --- | --- | --- |
| C3-13 (antibody, V domains shown, cynomolgus monkey VH of monkey #3; cynomolgus monkey VL of monkey #3; Monkey-human chimeric antibody, human IgG1 constant regions; source: HEK-293F, transfected, purified (protein A)) VH: QVQLQESGPRLVKSSETLPLTCAVSGASNSSNYWSWIRQPPGKGLEWIGRIYGNSGSTDYNPSLKSRVSISTDTSKNQFSLKLSSVTAADTAVYFCARGSVYTYSWGQGVLVTVSS VL: DIQMSQSPDSLAVSLGERVTINCKSSQSLLYSSNNKNYLAWYQQKPGQAPKLLFYWASTRESGVPNRFSGSGSGTDFTLTIRGLQAEDVAVYYCQQHYTTPLTFGQGTKVEIK | binds | binds |  |
| hu1-23 (antibody, V domains shown, humanized VH: CDRs (IMGT) of C1-23 grafted on the most closely related human germline; humanized VK: CDRs (IMGT) of C1-23 grafted on the most closely related human germline; Human IgG1 CH and CK constant regions; also called humanized 1-23; Humanized antibody hu1-23; source: HEK-293F, transfected, purified (protein A)) VH: QVQLQESGPGLVKPSETLSLTCTVSGGSITSNFWSWIRQPPGKGLEWIGYISGSGTYTDYNPSLKSRVTISVDTSKNQFSLKLSSVTAADTAVYYCARSHDYGSNDYAFDFWGQGTTVTVSS VL: DIQMTQSPSSLSASVGDRVTITCRATQDISSSLNWYQQKPGKAPKLLIYYANRLQSGVPSRFSGSGSGTDFTLTISSLQPEDFATYYCQQYHSLPLTFGGGTKVEIK |  | binds | 1.06 nM |
| C1-23 (antibody, V domains shown, cynomolgus monkey VH of monkey #1; cynomolgus monkey VL of monkey #1; Monkey-human chimeric antibody, human IgG1 constant regions; parent of hu1-23; source: HEK-293F, transfected, purified (protein A)) VH: QVQLQESGPGLVKPSEILSVTCSVSGGSITSNFWSWIRQPPGKGLEWIGYISGSGTYTDYNPSLRSRVTLSVDTSKNQLSLKLSSVTAADTAVYYCARSHDYGSNDYAFDFWGQGLRVTVSS VL: EIVMTQSPSSLSASVGDRVTITCRATQDISSSLNWYQQKPGKAPQLLIYYANRLESGVPSRFRGSGSGTEFTLTISSLQPEDFTTYYCQQYHSLPLTFGGGTKVEIK | binds | binds |  |

From article PMC8499627 (Antibody Therapeutics, 2021)
